Values quoted from earlier work, collected in publication PMC5266483.

Target: Lys14 (position 14, …)
Test: NMR
Settings: 37 °C; Transmembrane helix in DOPC

For GGALWLALALALAKALALWLAGA [GWALP23-K14 (synthetic construct; L14K)], the pKa is given as 6.5.
